Experimental findings from paper doi:10.1101/2021.09.06.458672 are described below.

The target in the test is plectasin variant D9S Q14K V36L (PPI42). As to the kind of experiment: dynamic light scattering.

“plectasin variant D9S Q14K V36L (PPI42) (peptide)”: the mass fraction of medium sized oligomers and protein fibrils was less than 2.5 % mass.
